The series concerns the target T1, ROS3 (Arabidopsis thaliana, UniProt Q9FGT1 1-748).
T1 sequence: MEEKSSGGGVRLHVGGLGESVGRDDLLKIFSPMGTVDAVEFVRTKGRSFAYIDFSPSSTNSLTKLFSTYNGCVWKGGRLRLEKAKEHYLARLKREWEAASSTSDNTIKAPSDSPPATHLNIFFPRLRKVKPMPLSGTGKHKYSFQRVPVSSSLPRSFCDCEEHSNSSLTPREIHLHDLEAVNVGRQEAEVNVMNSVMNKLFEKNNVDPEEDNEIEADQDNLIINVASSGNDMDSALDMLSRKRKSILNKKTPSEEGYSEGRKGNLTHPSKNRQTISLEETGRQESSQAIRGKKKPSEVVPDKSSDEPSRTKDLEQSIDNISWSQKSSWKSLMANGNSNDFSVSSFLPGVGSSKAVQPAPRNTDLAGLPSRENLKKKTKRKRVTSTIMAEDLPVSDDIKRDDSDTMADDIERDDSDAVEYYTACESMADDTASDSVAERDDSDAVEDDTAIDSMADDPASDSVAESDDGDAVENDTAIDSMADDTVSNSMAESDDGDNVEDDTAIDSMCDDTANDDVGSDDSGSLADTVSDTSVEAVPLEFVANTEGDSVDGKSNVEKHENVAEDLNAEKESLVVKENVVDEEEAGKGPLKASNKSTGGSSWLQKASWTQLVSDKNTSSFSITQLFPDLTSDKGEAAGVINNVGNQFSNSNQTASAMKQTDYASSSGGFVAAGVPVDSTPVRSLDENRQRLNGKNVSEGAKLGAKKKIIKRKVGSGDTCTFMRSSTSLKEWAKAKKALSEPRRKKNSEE
Description: EMSA. A general note: In EMSA bound probe runs differently from free probe, usually more slowly.

In the case of GGGAGUCCGGAGACGUCGGCGGGGG (ssRNA) [RNA (c) 25-nt], the binding result was “binds”. As for UCGGGAGGGAAGCGGAUGGGGGCCG (ssRNA) [RNA (d) 25-nt], the binding result is “binds”.
